Measured values reported in patent US20160131655A1.

Biological target: BCMA (B cell maturation antigen) protein on the cell surface of human multiple myeloma cells (human) (UniProt Q02223)
Test: FACS on OPM-2 cells, Alexa488-labeled antibody

Sequence of UniProt Q02223 (Q02223 whole entry N81S): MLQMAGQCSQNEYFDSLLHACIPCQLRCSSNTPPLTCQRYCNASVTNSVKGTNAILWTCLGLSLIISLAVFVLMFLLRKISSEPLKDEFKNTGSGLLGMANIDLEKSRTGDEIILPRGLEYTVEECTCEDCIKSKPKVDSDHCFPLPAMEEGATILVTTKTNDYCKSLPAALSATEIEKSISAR

Mean Fluorescence Signal | Substance
371 | anti-BCMA antibody MAB193 (clone 335004, rat IgG2a, R&D Systems #MAB193)
609 | anti-BCMA antibody Vicky-1 (rat IgG1, GeneTex #GTX17323)
